Reference: publication PMC9519967 (2022)

Legend:
Assay in all cases: MST
[1] = target: Sos-C-Tail-6 truncated peptide (without GST) (UniProt Q07889)
[2] = target: Sos-C-Tail-8 truncated peptide (without GST) (UniProt Q07889)
[3] = target: Sos-C-Tail-5 truncated peptide (without GST) (UniProt Q07889)

Kd [1]: 3.41 µM
Kd [2]: 71.1 µM
Kd [3]: 2.36 µM
B1: His-tagged Grb3-3 N-terminal SH3 and SH2 domain (NSH3SH2Δ40) (domain or fragment)
chain: MEAIAKYDFKATADDELSFKRGDILKVLNEECDQNWYKAELNGKDGFIPKNYIEMKPHPFGNDVQHFKVLRDGAGKYFLWVVKFNSLNELVDYHRSTSVSRNQQIFLRDIE
modifications: Atto488 NHS ester label, 1:1 protein:dye
